# Data from patent publication US11054425B2, “System and method for identification and characterization of transglutaminase species” (Roche Sequencing Solutions, Inc., priority 2014, dated 2021).
# B1: FKBP domain RYRQR: chimeric protein of Thermus thermophilus FKBP domain and KalbTG recognition sequence RYRQR (protein)
# chain: MKVGQDKVVTIRYTLQVEGEVLDQGELSYLHGHRNLIPGLEEALEGREEGEAFQAHVPAEKAYGAGSGGGGRYRQRGGGGGSSGKDLDFQVEVVKVREATPEELLHGHAHHHHHHHH
# modifications: synthetic peptide sequence - KalbTG acyl-donor sequence grafted onto the FKBP domain of SlyD; FKBP_domain; acyl-donor_tag; 8xHis_tag
# B2: KalbTG: Kutzneria albida microbial transglutaminase (protein)
# chain: MHKWFLRAAVVAAVGFGLPTLIATTAQAAAVAAPTPRAPLAPPLAEDRSYRTWRVEDYVEAWERYHGREMTEDERENLARGCIGVTVVNLNREDLSNPPLNLSFGSLRTAEAVQAALNKIVDTHPSPAQYEAAVAKDPILKRLKNVVKALPSWIDSAKLKASIFSKRFYSWQNPDWSEERAHTTYRPDRETDQVDMSTYRYRARPGYVNFDYGWFDQDTNTWWHANHEEPRMVVYQSTLRHYSRPLQDFDEQVFTVAFAKKD
# modifications: Hypothetical_transglutaminase
# notes: Kutzneria albida microbial transglutaminase
# How the values were obtained:
# [1] = system: KalbTG and S. mobaraensis MTG; test: dual site-specific labeling with Cy3 and Cy5 labels; assay type: biochemical; settings: KalbTG + Cy3 label 30 min, then S. mobaraensis MTG + Cy5 label 15 min
# Description: Turning to FIG. 6C, the high sequence specificity of KalbTG was used to conjugate a 6 kDa Cy3 label to the YRYRQ (SEQ ID NO:1) site of a 7 kDa substrate peptide comprising both the KalbTG and S. mobaraensis MTG glutamine-containing motifs. The reaction was run for 30 minutes to saturate the YRYRQ (SEQ ID NO:1) site. Analysis by SDS-PAGE confirmed that the label was integrated at a single site. The substrate peptide was subsequently incubated for 15 minutes with S. mobaraensis MTG and a 6 kDa Cy5 label. […] Accordingly, KalbTG may be useful for the industrial-scale synthesis of complex protein conjugates of interest in therapeutic or diagnostic applications.
# For the orthogonal labeling experiment, a molecule containing both KalbTG and MTG Q-tags was chemically synthesized to have the primary chemical structure:
# (§1) If not noted otherwise, labeling reactions were performed for 15 minutes at 37° C. in the presence of 72 μM substrate protein, 720 μM label peptide and 1 μM transglutaminase in 200 mM MOPS pH 7.2 and 1 mM EDTA. […] Samples were taken between incubation steps and analyzed by SDS-PAGE, in-gel fluorescence (BioRad ChemiDoc gel documentation system, Cy3 and Cy5 LED and filter sets). […] The mixture was filtered (0.2 μm spin filter) and analyzed by LC-MS with UV detection at 214 nm and 305 nm.
# KalbTG = test: Cy3 labeling of Q-tagged SlyD/FKBP scaffold, SDS-PAGE; assay type: biochemical, Kutzneria albida
# Description: Next, the array and in-solution data were applied to perform site-specific labeling on protein substrates. The molecular chaperone SlyD is a useful scaffold for labeling approaches as epitope-containing loops can be grafted onto the FKBP domain for presentation to binders or enzymes (PCT App. Pub. No. WO 2012/150321 A1 to Andres et al.). A chimeric protein consisting of the Thermus thermophilus FKBP domain and the KalbTG recognition sequence RYRQR (SEQ ID NO:14) was produced. Labeling with a ten-fold excess of KalbTG K-tag-Cy3 and a substrate to enzyme ratio of 72:1 afforded approximately 70% yield of a labeled protein species after 15 minutes (FIG. 6A). This yield remained constant over a time-course of 60 minutes. […] The molecular weight shift from 13 kDa to 19 kDa was observed on the SDS-PAGE gel, corresponding exactly to the incorporation of a single 6 kDa label molecule. […]
# as §1
# [2] = system: Z-[GGGYRYRQGGGG (SEQ ID NO:75)]-OH; test: GLDH assay of transglutaminase enzyme activity after storage; assay type: biochemical; settings: as measured by GLDH assay
# Description: A further experiment was performed to determine the activity of KalbTG enzymes prepared from two different constructs, and stored at two different temperatures. The KalbTGt3 (SEQ ID NO:10) and KalbTGt1 (SEQ ID NO: 12) enzymes tested were obtained respectively from the EcSlyD2-Xa-KalbTGt3-8×His-tag construct (SEQ ID NO:8) and the EcSlyD2-Xa-KalbTGt1-8×His-tag construct (SEQ ID NO:11) described in Example 3. The activity of the two KalbTG enzymes was tested after storage at either 4° C. or −20° C. and compared against the activity of commercially available S. mobaraensis MTG according to a published protocol (Oteng-Pabi, et al., 2013. Analytical biochemistry 441(2): 169-173). In particular, assays were performed at 37° C. in 200 μl total volume. The assay mixture included 200 mM MOPS, 1 mM EDTA, and 1 mM DTT at pH 7.4. Further, α-ketoglutarate and NADH were added at a concentration of 500 μM, along with 2 U/ml GLDH, and between 0.1 μg and 1.0 μg of one of the transglutaminase enzymes. The glutamine substrate was 200 μM Z-[[…] (SEQ ID NO:75)]-OH, and the amine donor was 10 mM cadaverine, where Z represents a carboxybenzyl group. All data were collected in triplicate (average of 3 wells in a microtiter plate) and baseline activity (buffer without enzyme) subtracted.
# [3] = differential scanning calorimetry (DSC); assay type: physicochemical; settings: purified and activated enzyme
# Description: Initial screening at the 5 ml scale provided clear evidence that proteins with the anticipated electrophoretic mobility of full length KalbTG fusions were expressed, and that a fusion with tandem SlyD chaperones (Scholz, et al. 2005. Journal of Molecular Biology 345(5): 1229-1241) yielded the highest amount of soluble protein among all the constructs tested (FIG. 3A). The expression of this construct was further optimized by screening different incubation times and temperatures, Isopropyl β-D-1-thiogalactopyranoside (IPTG) inducer concentrations and induction times, media types and volumes. With reference to FIGS. 3B and 3C, the modular nature of the chosen fusion construct afforded the SlyD fusion protein, the pro-enzyme, and the activated enzyme by a combination of sequential purification and proteolytic cleavage steps. The expression construct 200 included, starting from N-terminus, two sequential SlyD chaperones 202, a factor Xa protease cleavage site (C1), the KalbTG pro-peptide 204, a trypsin protease cleavage site (C2) the KalbTG enzyme 206, and an 8×-histidine tag 208. The SlyD chaperones 202 are cleaved from the expression construct 200 with a factor Xa protease 210. […] The melting point of the purified and activated enzyme was determined to be 48.9° C. using differential scanning calorimetry (DSC). […]
molecule,measurement,setting,value
Z-[GGGYRYRQGGG (SEQ ID NO: 101)]-PEG27-[GIEGRG (SEQ ID NO: 102)]-PEG27-PEG27-[GGGDYALQGG (SEQ ID NO: 103)]-OH,yield of dually labeled construct,[1],nearly quantitative yield
B1,yield of labeled protein species / incorporation of label,"KalbTG; ten-fold excess KalbTG K-tag-Cy3, substrate to enzyme ratio 72:1, after 15 minutes",approximately 70%
B2,pH of highest labeling efficiency,"KalbTG; 15 minute reaction, pH 6.2 to 9.0 tested",7.4
same,increase in KalbTG enzymatic activity by purification process with ammonium chloride,[2],up to 9 fold
same,melting point (DSC),[3],48.9 °C
